Experimental data as given in patent US11491212.

test system: CB 2679d (modified FIX R318Y/R338E/T343R, SEQ ID NO:394), mature single-chain zymogen form; assay: not given
Sequence (chain, as listed by the source R318Y R338E T343R): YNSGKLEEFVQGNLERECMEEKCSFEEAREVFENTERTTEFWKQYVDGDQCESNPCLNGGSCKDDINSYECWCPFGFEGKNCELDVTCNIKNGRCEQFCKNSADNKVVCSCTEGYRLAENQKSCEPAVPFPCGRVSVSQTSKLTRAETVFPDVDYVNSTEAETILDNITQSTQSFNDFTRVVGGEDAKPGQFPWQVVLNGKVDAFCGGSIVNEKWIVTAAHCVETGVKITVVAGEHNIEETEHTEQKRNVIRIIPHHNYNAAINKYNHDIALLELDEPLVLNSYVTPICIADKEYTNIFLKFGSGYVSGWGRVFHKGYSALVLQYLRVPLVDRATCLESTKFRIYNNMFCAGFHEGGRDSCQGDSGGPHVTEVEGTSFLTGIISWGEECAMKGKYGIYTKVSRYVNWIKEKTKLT

For “activated Factor XI (FXIa; Heamatologic Technologies, Inc.)”, the “activation rate and extent of activation by factor XIa/calcium” value was “The activation rate of the polypeptide of SEQ ID NO:394 (CB 2679d) by factor XIa/calcium and the extent of activation (approximately 100%) were equivalent to those of commercial lots of BeneFIX®”.

test system: plasma purified human AT-III (antithrombin III); assay: same assay; ratio of K0.5 to Catalyst Biosciences WT FIXa

First: FIXa D85N
Second: BeneFIX Coagulation Factor IX (Recombinant), activated (FIXa)
The K0.5-mut/K0.5-wt of the first is higher: 1.1 fold for the first, 0.9 fold for the second.

Going from FIXa D104N/K106S to FIXa K106N/V108S, the K0.5-mut/K0.5-wt rises from 0.9 fold to 1.6 fold.

In the case of FIXa A103N/N105S, the K0.5-mut/K0.5-wt is reported as 1.1 fold.
